Assay results as given in patent publication US20230123431.

Experiments:
[1] = molecular target: T1, Kgd2p (lipoate-bound subunit of alpha-ketoglutarate dehydrogenase, KGDC), P19262
T1 chain: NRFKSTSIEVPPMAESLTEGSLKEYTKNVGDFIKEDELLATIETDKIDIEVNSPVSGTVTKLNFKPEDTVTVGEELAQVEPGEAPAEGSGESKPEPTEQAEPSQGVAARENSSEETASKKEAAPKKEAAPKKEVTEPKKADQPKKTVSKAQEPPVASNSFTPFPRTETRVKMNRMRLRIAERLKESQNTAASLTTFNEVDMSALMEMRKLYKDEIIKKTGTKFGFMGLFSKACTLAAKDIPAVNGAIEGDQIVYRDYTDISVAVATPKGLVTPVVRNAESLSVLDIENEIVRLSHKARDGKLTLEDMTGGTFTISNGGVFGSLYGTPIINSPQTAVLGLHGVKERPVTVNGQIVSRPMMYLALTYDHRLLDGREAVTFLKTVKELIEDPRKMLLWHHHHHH

[2] = molecular target: T2, Gcv3p (H protein of the glycine cleavage system), lipoylated
T2 chain: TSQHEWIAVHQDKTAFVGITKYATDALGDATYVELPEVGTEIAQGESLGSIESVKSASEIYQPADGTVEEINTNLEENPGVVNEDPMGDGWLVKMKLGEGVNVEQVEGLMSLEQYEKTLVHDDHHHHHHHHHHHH

[3] = molecular target: T3, Lat1p (lipoate-bound subunit of pyruvate dehydrogenase, PDH), P12695
T3 chain: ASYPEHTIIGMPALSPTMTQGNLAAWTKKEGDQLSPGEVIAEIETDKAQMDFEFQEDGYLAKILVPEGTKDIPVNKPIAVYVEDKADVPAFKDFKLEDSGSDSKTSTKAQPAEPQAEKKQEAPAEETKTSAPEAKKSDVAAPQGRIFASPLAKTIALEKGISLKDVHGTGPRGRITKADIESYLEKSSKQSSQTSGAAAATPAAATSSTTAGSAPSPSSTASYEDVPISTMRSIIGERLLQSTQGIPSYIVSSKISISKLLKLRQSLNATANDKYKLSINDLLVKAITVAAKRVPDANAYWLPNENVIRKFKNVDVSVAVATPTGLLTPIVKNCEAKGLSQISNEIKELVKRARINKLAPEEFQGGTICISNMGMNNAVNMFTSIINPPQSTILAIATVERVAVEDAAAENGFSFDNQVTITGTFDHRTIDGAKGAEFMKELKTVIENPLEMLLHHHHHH

B1: lipoamidase from Enterococcus faecalis (EfLPA) (protein)
chain: MLSLRQSIRFFKPATRTLCSSRYLLQQKPMLAQESILETTVQTETESVTTETSQTVANLESETTSQTVMQEKESSSAIAESSSRNVVAVTTETTNEIQNSGTDGKAVSAESVFSEADYKQATALELATLVREKKVTSEELVKIALAITKRENPTLNAVITLREEAALTEAKALQDTGQPFLGVPLLLKGLGQSLKGESNTNGFGFLRDQVAGGTSTFVKALQNAGFIIIGQTNYPELGWKNISDSKLYGVSVNPWNPNHYSGGSSGGAGASVAAAFVPIASGSDAGGSIRIPASWTGTVGLKPSRGVIIGNSNSAKGQTVHFGLSRTVADTNALFETLLTKKDLPAGHLSQAQPIAYTTESPAGTPVSAEAKEAVAEAVAFLKDQGYTLVEVKHPVDGERLMKNYYTVAAGSAGIADFMARQKLKRPLERNDVELLTWALFQTGKNITSEETTAAWTDIALQAQAMDEFYQQYPILLTPTTAATAPSIDNPLLKPEHAAQMEKIDQLSPAEQKQLIYDQWLTAFTYTPFTQQANLFGHPALSVPTYVSKEGLPLGIQFNSALNEDRTLLQLGALFENNHKINQPHVEEPDKDKEPDASGEPEKDKDPNASGEPDKDKEPDASGEPDKDKEPDASGEPDKDKEPDASGKPDKDKETKTSEGPIEGKDQNQNPDKAGKTTSGSSLDNSLNSSANQGTKSTESTHAFSNKSMIGKQEQLPKKVLPKAGAEVPSTFWIVLGGAFLVTSGTIYIRKTRKHHHHHHHHHHHH
lipoic acid released (LC-MS/MS) after incubation of the purified proteins at 37 C for 2 h [1]: no lipoic acid was observed in the reaction mixtures containing EfLPA with Kgd2p or Lat1p individually | lipoic acid released (LC-MS/MS, confirmed by GC-MS) after incubation of the purified proteins at 37 C for 2 h [2]: Only the reaction of EfLPA with Gcv3p resulted in a peak with m/z 205.0360 (FIG. 5B) indicative of lipoic acid | lipoic acid released (LC-MS/MS) after incubation of the purified proteins at 37 C for 2 h [3]: no lipoic acid was observed in the reaction mixtures containing EfLPA with Kgd2p or Lat1p individually
